The DeepSol protein solubility set

Assay: soluble on expression in E. coli; label from the status in PepcDB or PDB records

Row | Sequence | soluble on expression in E. coli
1 | MGSDKIHHHHHHMPSLFSLYRKIFFGRKPGWDQQPLPHIKVTAPHVTVSETKVSQYAQVCGFQFDGKVLPPTYLYVMAFRLHAVIFTHDGITFPLLGMIHLKNRIQVYRPVTVDETFSLECALTTSRETDSGLEFEFVSKAFVGEELVWESLSTYLYRIDVAGRRVRPPKAIDMAWETPQSWRLSEDLGRRYAKASGDYNLIHLHPVLSKRFGFDRVLAHGMWSKARCLAELMPSIGDRPFTVDVTFKLPLLMPADVGFGYEQNTDNMVFELRDSKGRRPHLSGDVQF | not soluble
2 | MTSPNNDILAAQLSQLGTLRAALAQAVVGQDAVVEQLLIGLLAGGHCLLEGAPGLGKTLLVRSLGQALDLQFRRVQFTPDLMPSDILGTELLEEDHGTGHRHFRFQQGPIFTNLLLADELNRTPPKTQAALLEAMSERTVSYAGTTYALPAPFFVLATQNPIEQAGTYPLPEAQLDRFLLHVRVDYPSEQEERDILTQTTGSASAQVPKVMDAASVQALQQHVRQVHVGAELLTWINRLVRASRPGPQASDEVRQWIKWGAGPRAGQSLVLASKARALLHGRFAATREDVVALAAPVMRHRLLLSFAAEAEQRTADDVVAALLRAVPFPALEHHHHHH | soluble
3 | MCMASKVLNKVMGIIGLNDEDFDEYEDEVMEEKAIARENSYDYDEKLNDKNSSNSNNKVVNIHTASSVKVVIVKPKDYDEATQIDDLKNRKIVVVNVTDLEPKTAQRLLDFMGGASYVLNGELLEIDKGVYLLSPSNVDISRDLKNDLASKSIFNWSKLEHHHHHH | not soluble
4 | MLIMNIRKIDDYTYEIPREGDMIVHGIVYSTDKLFKNTVEDGSLNQVVNVAKLPGIVEASYAMPDIHLGYGFPIGGVAAFDYDEGIISPGGVGYDINCGVALLRTGMNYAQIKPRIKDITDYIFQEVPSGLTSRKGFPVNQNDLQEILTSGLKWAVSRGLATELDMINTEDNGSIESHGTHVSKQAMQRGLSQIGTLGAGNHFLEIQRVSDIFDEDVARKFGLYKDEVTVMIHTGSRGLGHQVATDYLRELRESRESIKTSDPELISIHVKSKIGENYLDAMKSAANFAFVNRQMAIYGVRKVFKKFFDVEPELVYSLAHNIAKVEDHIVEGKTKSLIVHRKGATRAFGPGKSSPPFEDTGHPVLIPGSMGTASYVLVGVKENLIKSFGTACHGSGRVLSRNQAIKKFSSIVDRELEEKDVYARPATKRVLYEEAPGSYKNVDEVVAAVEGAHLARSIVRMVPLAVVKGLEHHHHHH | not soluble
5 | MKFIRRCMMETRYTVRQAVEMTGVKSYVLRYWEEELELQIHRNELGHRYYTGYDIQLFLNIKELKKRGLQLRAIKNLIPQITASMTGFGESASTLLEGEVIDHAEVKTDRDLKEKISKKDEGKNDKILEFQAILERLITQELKAQNEDEERCRSLDYAIRRQQLARKEAAAAAEKKSGRRRRDK | not soluble
6 | MGSDKIHHHHHHMSLVCSVIFIHHAFNANILDKDYAFSDGEILMVDNAVRTHFEPYERHFKEIGFNENTIKKYLQCTNIQTVTVPVPAKFLRASNVPTGLLNEMIAYLNSEERNHHNFSELLLFSCLSIFAACKGFITLLTNGVLSVSGKVRNIVNMKLAHPWKLKDICDCLYISESLLKKKLKQEQTTFSQILLDARMQHAKNLIRVEGSVNKIAEQCGYASTSYFIYAFRKHFGNSPKRVSKEYRCQRHTGMNTGNTMSALAI | not soluble
7 | MTEFSASLAPQVEAFLRYLSIERQLSPLTVTSYRRQLSALMEIGEQMGLAHWQTLDAAQVRSLVSRSKRAGLHASSLALRLSALRSFLNWLVSQGVLPANPAKGVSTPRSGRHLPKNIDVDEVNKLLSIDLNDPLAVRDRAMLEVMYGAGLRLSELVGMNCKHVDLASGDVWVMGKGSKERKVPLGKTAVTWLQHWLALRELFEPQDDAIFLANTGKRISARNVQKRFAEWGVKQGVSSHIHPHKLRHSFATHMLESSGDLRAVQELLGHANLTTTQIYTHLDFQHLATVYDAAHPRAKRGKS | not soluble
8 | MSALTPPTDMPTPTTDKITQAAMETIYLCKFRVSMDGEWLCLRELDDISLTPDPEPTHEDSWEDLTDLVEQVRADPEDPNYLMANERMNLMNMAKLSIKGLIESALNLGRTLDSDYAPLQQFFVVMEHCLKHGLKAKKTFLGQNKSFWGPLELVEKLVPEAAEITASVKDLPGLKTPVGRGRAWLRLALMQKKLSEYMKALINKKELLSEFYEVNALMMEEEGAIIAGLLVGLNVIDANFCMKGEDLDSQVGVIDFSMYLKDGNSSKGSEGDGQITAILDQKNYVEELNRHLNATVNNLQTKVDLLEKSNTKLTEELAVANNRIITLQEEMERVKEESSYLLESNRKGPKKTELQKGKR | soluble
9 | GDEEKRNRAITARRQHLKSVMLQIAATELEKEEGRREAEKQNYLAEH | soluble
10 | MAREVKLTKAGYERLMQQLERERERLQEATKILQELMESSDDYDDSGLEAAKQEKARIEARIDSLEDILSRAVILEEGSGEVIGLGSVVELEDPLSGERLSVQVVSPAEANVLDTPMKISDASPMGKALLGHRVGDVLSLDTPKGRREFRVVAIHG | soluble
11 | MKEFIIKANKAVTNGEINLKDLPGSSGRLDLLCRCVNSAFFLSHDMRRDTIFYSVNYGSPNPPVALKFVGSELKRVSPDERSIALFIKKALEKDASELWKESTSGIYSSKREFRDIILEKKNEGKRIFYLHLNGKPLEDFEFKNQDDEDFLFVLGDHIGIGDEDEEFLEEIGAEKISLSPLELHADHCIILVHNILDRLK | not soluble
12 | MIKLENEVLLVEMKTAGAELTRIFHKDTGLEYLWNADSKFWGRHSPVLFPTVGRLVEDTYLVDGKPYHLGQHGFARDRDFQVVEQTEKSVRFELDADEDSLAVYPYKFKLSIIYTIEKNTVAVSYEVENTDNKRIYFSIGAHPAFNLPLTDGTTFEDYYLDFGTEENLETLCLEGPYRSGEIKKVVDEAARYLPLNYDLFKNDALIFEALKQKEMTIKSDKTPHFVKVSFPEFPFVGVWTAKAGTPFLCIEPWYGIADGAGESVELRDKAGIEHLEPEAVFASEYEITVGLEHHHHHH | soluble
13 | MTAPGSVPLTVIGGFWGAGKTTLLNYLLKVQHSERVLVMVNDFGSINIDAELLDQGRHDRPGVVRLQNGCVCCSIGGDLMQAFLQVMSMPDRPDRIIVEASGVADPTRIAQIGRVSGGLSDEGVITLVDASAVRALAADKYVGDIVRQQILSADIVLLNKLDLSSDAEIVETRAWLRDLAPRTRVVSCIHGEVDAVSVLGIGAGKVAPDTAGGPVDVPVPDLRRASTRHADTFHSSTLATEHRFDRRRIEYALDALPQTVLRGKGFVELEGEATPALLQLCGSRWTLDPVSTPAPPAGTHLVFIATGGRGVPRFDAPSHFEQALASRDAASADTSNLEHHHHHH | not soluble
14 | MSQSKADYINVIGAGLAGSEAAYQIAKRGIPVKLYEMRGVKATPQHKTTNFAELVCSNSFRGDSLTNAVGLLKEEMRRLDSIIMRNGEAHRVPAGGAMAVDREGYAEAVTAEIESHPLIEVIRKEITEIPDDAITVIASGPLTSDALAEKIHELNGGDGFYFYDAAAPIVDKATIDMNKVYLKSRYDKGEAAYLNCPMTKEEFMAFYEALTTAEEAPLNSFEKEKYFEGCMPIEVMAKRGIKTMLYGPMKPVGLEYPEDYMGPRDGDFKTPYAVVQLRQDNAAGSLYNIVGFQTHLKWGEQKRVFQMIPGLENAEFVRYGVMHRNSYMDSPNLLKQTFQSKSNPNLFFAGQMTGVEGYVESAASGLVAGINAARLFKGEDEVIFPHTTAIGSLPYYVTHAESKHFQPMNVNFGIIKELEGPRIRDKKERYEKIAERSLKDLQTFIDALEHHHHHH | soluble
15 | MKFRQKHEDFIVNEILEYELNDYGNYFLYKLQKNGIENLKAISYLSKNFEVPTKEIGYCGLKDRHAITTQYVSIPKEYGKLSLDEDNLKLEYVGTIEKPLKIGRLYGNRFEIIARAVDKDEFLKIADNIRNLSSGAPNYYDDQRFGSVFNGKFIAKEILKGNYEEVVKILLTSYTKSEKKQLKDLKRFIAKNWGNWDECLEYIDKKQIRSKMFRNMVKSLTYENDFKKAFKYVDNRLKELFISAYQSYLWNECLKEFLKEVIPKENRIYVDYSCGTFLFYENIEEELFDKLKEMDFPTIVSDVEYTDPEKRIIKAILKKERIKISDFEKLDFGKLKYTKRPIISIPEDVNTGKFKSDELNSKKYKIDLEFSLKKGSYATIILKRVFNILLEHHHHHH | soluble
